For the assay, the target named is T1, human TPO receptor, c-mpl (hTPOr) (human, UniProt P40238 26-635).
T1 sequence (looked up): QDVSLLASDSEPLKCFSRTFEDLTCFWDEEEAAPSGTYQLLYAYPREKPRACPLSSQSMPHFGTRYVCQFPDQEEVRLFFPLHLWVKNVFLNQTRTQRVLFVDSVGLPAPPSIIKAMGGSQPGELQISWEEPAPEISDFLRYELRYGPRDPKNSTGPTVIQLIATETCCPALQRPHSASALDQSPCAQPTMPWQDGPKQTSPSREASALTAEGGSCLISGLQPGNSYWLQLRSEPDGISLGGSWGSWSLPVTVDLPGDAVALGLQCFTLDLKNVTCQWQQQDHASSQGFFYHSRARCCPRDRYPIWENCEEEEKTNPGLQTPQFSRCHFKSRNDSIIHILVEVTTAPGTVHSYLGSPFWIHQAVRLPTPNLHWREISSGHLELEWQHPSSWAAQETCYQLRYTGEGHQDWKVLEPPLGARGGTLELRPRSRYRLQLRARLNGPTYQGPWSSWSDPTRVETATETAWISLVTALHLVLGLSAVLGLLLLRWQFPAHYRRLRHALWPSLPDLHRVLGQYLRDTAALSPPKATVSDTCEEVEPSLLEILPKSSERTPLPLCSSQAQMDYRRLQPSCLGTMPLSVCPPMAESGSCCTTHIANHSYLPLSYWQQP
Nature of the assay: cell-based or functional assay.

Non-standard residues stand in square brackets, D forms with d. No end group written: not given here. MPEG = methoxypoly(ethylene glycol), ~20,000 Da; 2Nal = N[C@@H](Cc1ccc2ccccc2c1)C(=O)O; Sar = CNCC(=O)O

B1: PEGylated TPO Compound No. 1 (peptide)
peptide: {MPEG}-IEGPTLRQ[2Nal]LAAR[Sar]K[Sar]RAAL[2Nal]QRLTPGEI
modifications: not fully specified (C-terminus); printed as (MPEG-Ile-Glu-Gly-Pro-Thr-Leu-Arg-Gln-(2-Nal)-Leu-Ala-Ala-Arg-(Sar))2-Lys-NH2; also: branched dimer: two 14-mers joined at their C-termini to Lys alpha and epsilon amines, residues 16-29 written C→N, Ile29 is the second N-terminus bearing MPEG, Lys C-terminal amide (lysinamide)
Consider B1, for which the “EC50, luciferase reporter (fos promoter) in Baf/3 cells expressing human TPO-R” value is about 5 pM.

The values are drawn from patent publication US20080119384A1 (Janssen / Centocor, published 2008).
